Assay results: patent US20200002709

Tests used:
Assay in all cases: cell_activity
[1] = test system: TaGliadin_T03.1 TALE nuclease pair; conditions: wheat protoplasts; also 0.00 for all treatments in TABLE 7
[2] = test system: TaGliadin_T02.1 TALE nuclease pair; conditions: wheat protoplasts; TABLE 7: 0.00 nuclease only, 2.43 with TREX, 5.33 with 5-azacytidine, 0.00 with trichostatin A
[3] = test system: TaGliadin_T01.1 TALE nuclease pair; conditions: wheat protoplasts, nuclease only; 0.325% in TABLE 6; 2.40 with TREX, 1.29 with 5-azacytidine, 0.90 with trichostatin A

TCAGCAACAGCCACAAGAGCAAGTTCCATTGGTGCAACAACAACAATTTCCA (double strand) [TaGliadin_T03.1 target]
activity (% mutation frequency) [1]: 0

TCTCATCCTTGCCCTCCTTGCTATCGTGGCGACCACCGCCACAACTGCA (double strand) [TaGliadin_T02.1 target]
activity (% mutation frequency) [2]: 0.746

TTAGAGTTCCAGTGCCACAATTGCAGCCACAAAATCCATCTCAGCAACA (double strand) [TaGliadin_T01.1 target]
activity (% mutation frequency) [3]: 1.57
